1 molecule from US20190016796A1 can be followed below.

Assay [1] deals with murine interleukin-2 (mouse) (UniProt P04351). The experiment in a line: SPR, MAB602 amine-coupled to GLM chip, mouse IL-2 as analyte at concentrations >1 nM.
The target in assay [2] is human interleukin-2 (human) (UniProt P60568). The assay is described as follows: sandwich ELISA, hIL-2 captured on coated 5344, biotinylated MAB602 as detector, no competitor (well H11). A general note: An ELISA detects its analyte on a solid surface through an enzyme-linked reagent.
human interleukin-2 (human), sequence (P60568 21-153 limits assumed): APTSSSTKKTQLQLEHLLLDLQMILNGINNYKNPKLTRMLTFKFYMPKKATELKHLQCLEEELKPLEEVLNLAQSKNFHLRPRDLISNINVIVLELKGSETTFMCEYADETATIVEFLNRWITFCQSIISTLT
Assay [3] shares this target. The experiment in a line: SPR, antibody amine-coupled to GLM chip, hIL-2 as analyte (100 nM, three-fold dilutions). (In general: SPR reads the build-up and loss of mass on a sensor chip optically.)

murine interleukin-2 (mouse), sequence (P04351 21-169 limits assumed): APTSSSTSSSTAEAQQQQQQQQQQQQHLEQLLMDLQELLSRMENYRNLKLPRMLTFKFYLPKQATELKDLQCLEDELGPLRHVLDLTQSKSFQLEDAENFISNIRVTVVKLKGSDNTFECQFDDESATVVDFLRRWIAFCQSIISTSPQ

B1: commercially available anti-human IL-2 monoclonal antibody MAB602 (antibody, from another filing, V domains shown)
VH: EVQLQESGPGLVAPSQSLSITCTVSGFSLTNYDISWIRQPPGKGLEWLGVIWTGGGTNYNSGFMSRLSITKDNSKSQVFLKMNSLQTDDTAIYYCVRQGRTPYWGQGTLVTVSA
VL: DIQVTQSPSSLSVSLGDRVTITCKASKDIYNRLAWYQQKPGNAPRLLISGATSLETGVPSRFSGSGSGKDYTLTITSLQTEDVATYYCQQFWGTPYTFGGGTKLEIKR
One may read the Kd as the concentration at which binding is half-saturated. Higher therefore signals a looser complex. As usually defined, the koff is the first-order rate constant of dissociation. Lower therefore signals slow dissociation. B1 gave a response units (RU) in assay [1] above 10 RU. Moreover, the absorbance (OD450) in assay [2] amounted to 1.1 OD450. In assay [3], this molecule had a Kd of 9.7 nM and a koff of 0.000494 s⁻¹.
